1 molecule from article PMC11803495 can be followed below.

The target of one data set is T1, MBP-dPPR-nad7-Δ (synthetic construct (13 P-type PPR …)).
T1 chain: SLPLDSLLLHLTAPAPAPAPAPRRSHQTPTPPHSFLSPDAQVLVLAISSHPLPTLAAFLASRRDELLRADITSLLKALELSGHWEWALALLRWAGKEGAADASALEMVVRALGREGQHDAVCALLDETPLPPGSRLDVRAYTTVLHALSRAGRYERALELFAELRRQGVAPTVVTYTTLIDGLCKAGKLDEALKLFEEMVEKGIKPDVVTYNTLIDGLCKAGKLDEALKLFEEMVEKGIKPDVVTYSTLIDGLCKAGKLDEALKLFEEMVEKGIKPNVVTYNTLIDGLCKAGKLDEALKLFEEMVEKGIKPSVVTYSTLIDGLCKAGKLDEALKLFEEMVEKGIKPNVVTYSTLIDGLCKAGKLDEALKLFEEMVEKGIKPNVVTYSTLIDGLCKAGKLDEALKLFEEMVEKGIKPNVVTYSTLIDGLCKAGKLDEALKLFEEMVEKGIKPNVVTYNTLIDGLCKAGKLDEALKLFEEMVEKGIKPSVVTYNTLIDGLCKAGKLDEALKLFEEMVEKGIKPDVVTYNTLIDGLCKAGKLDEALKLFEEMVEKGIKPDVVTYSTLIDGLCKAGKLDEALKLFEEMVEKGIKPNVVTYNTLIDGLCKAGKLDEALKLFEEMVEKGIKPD
Put plainly: EMSA. In general terms: In EMSA bound probe runs differently from free probe, usually more slowly.

Another data set has as its target T2, MBP-dPPR-nad7-DYW (synthetic construct (13 P-type PPR …)).
T2 chain: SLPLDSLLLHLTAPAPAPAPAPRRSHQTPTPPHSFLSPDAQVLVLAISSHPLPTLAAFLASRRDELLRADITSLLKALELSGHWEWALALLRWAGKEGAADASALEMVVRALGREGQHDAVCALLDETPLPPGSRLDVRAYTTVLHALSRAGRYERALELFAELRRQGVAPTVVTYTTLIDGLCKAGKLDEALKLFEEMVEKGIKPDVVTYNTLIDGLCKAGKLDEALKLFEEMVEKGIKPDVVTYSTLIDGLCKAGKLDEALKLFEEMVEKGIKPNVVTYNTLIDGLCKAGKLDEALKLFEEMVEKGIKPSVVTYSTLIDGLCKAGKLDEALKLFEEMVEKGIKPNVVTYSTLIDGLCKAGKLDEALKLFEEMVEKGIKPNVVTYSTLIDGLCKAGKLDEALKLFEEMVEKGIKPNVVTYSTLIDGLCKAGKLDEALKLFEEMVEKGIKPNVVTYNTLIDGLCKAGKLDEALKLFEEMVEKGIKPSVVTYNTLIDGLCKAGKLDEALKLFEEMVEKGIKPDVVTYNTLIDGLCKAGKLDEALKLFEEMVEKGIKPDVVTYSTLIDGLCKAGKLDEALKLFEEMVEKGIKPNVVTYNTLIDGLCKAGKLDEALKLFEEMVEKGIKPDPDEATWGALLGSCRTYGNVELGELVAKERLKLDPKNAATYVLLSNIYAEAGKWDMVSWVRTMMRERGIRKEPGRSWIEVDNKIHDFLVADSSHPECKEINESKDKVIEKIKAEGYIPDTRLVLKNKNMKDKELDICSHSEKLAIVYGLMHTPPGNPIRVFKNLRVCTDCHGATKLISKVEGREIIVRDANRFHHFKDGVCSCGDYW
The data set is described as follows: EMSA.

In the case of CUUUUGAAUUGCGAGGUACCAUUACGAG (ssRNA) [nad7 control], the binding result in the data set with MBP-dPPR-nad7-Δ and with MBP-dPPR-nad7-DYW was “no binding” each time.
